In patent US5019384A, “Immunonodulating compositions and their use” (Massachusetts Institute of Technology, priority 1989, dated 1991):
Entries after “also recorded” stand apart in the source; their conditions may differ.

Columns and labels:
[1] = target: T1, I-E^k (Mus musculus, UniProt P04224+P04230); assay: Gel filtration binding of 125I-labeled peptide to purified Ia (I-E^k)
T1 sequence (P04224 26-255): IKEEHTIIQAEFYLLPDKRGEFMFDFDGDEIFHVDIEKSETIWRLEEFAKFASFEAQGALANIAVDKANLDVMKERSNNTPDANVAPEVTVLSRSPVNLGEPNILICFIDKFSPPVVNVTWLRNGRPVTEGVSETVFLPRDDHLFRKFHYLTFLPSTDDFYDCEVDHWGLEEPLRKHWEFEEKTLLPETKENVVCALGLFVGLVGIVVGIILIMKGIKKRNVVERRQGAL
T1 sequence (P04230 27-264): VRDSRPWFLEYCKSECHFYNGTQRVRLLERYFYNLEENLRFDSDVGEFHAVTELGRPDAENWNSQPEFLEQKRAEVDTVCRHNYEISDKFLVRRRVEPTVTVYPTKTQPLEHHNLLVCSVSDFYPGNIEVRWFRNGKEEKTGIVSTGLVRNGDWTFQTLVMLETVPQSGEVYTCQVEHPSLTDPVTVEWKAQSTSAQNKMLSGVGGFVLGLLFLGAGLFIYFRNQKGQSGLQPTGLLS
From the text: (§1) The peptide P12-26 was modified by the addition of a tyrosine residue to the N-terminus to serve as an acceptor for the ^125 I.
(§2) Ia-molecules were purifed from Nonidet P-40 (NP-40) lysates of A20 (H2^d) or AKTB-1b (H2^k) cells by affinity chromatography using the following monoclonal antibodies: MK-D6 (I-A^d -specific), 10-3-6 (I-A^k -specific) specific) or 14-4-4 (I-E^d/k -specific) coupled to Sepharose 4B beads (Pharmacia Fine Chemicals, Sweden).
(§3) A gel filtration assay was used for determining the degree of association between immunogenic peptides and Ia. The assay is described in: Buus, S. et al., Proceeding of the National Academy of Sciences, U.S.A. (1986) 83:3968, the teaching of which is incorporated herein by reference. Briefly, 40 μmole of purified Ia in 1 percent NP-40/PBS was mixed with 0.2 μmole of ^125 I-labeled peptide (approximately 200,000 cpm for each experiment) and incubated for 48 hours at room temperature to allow for formation of the Ia-peptide complex. The Ia-peptide complexes were separated from free peptide by gel filtration and the percentage of peptide bound to Ia was calculated as the ratio of the ^125 I-labeled peptide in the void volume to the total ^125 I-labeled peptide recovered.

[2] = system: lymph node-derived T-cells from P12-26 immune mice; assay: Standard lymph node proliferation assay (thymidine incorporation); type: cell-based; conditions: cultured with 10 μM P12-26
From the text: (§4) The proliferation of these same cultures was not inhibited (75,000 cpm) by a monoclonal antibody, 34-1-4S, which is specific for I-E^d and which inhibits the stimulation of a hemocyanin specific, I-E^d resticted T-cell hybridoma.

[3] = system: T-cell hybridoma DO-11.10; type: cell-based
[4] = target: T1, I-E^k; assay: Inhibition of binding of 125I-labeled Cytochrome c (pigeon) (P88-104) to I-E^k; conditions: 125I Cytochrome c (pigeon) (P88-104) bound to I-E^k; read-out: Concentration (μM) of P12-26 Required for 50 percent Inhibition
From the text: as §2
as §3, with “Briefly, 40 μmole of purified Ia in 1 percent NP-40/PBS was mixed with 0.2 μmole of ^125 I-labeled peptide (approximately 200,000 cpm for each experiment) and incubated for 48 hours at room temperature to allow for formation of the Ia-peptide complex.” left out
For the inhibition assay a dose-range of unlabeled cI P12-26 peptide was added to the incubation mixture of Ia and ^125 I-labeled peptide (600, 120, 24, ad 48 μM). The degree of association between Ia and labeled peptide was determined by gel filtration as described in Table 1. […] The concentration of inhibitory peptide required to obtain a 50 percent inhibition of binding was calculated. […]

[5] = target: T2, I-A^k (Mus musculus, UniProt P01910+P06343); assay: Gel filtration binding of 125I-labeled peptide to purified Ia (I-A^k)
T2 construct: endogenous in cells
From the text: as §1, §2, §3

[6] = target: T2, I-A^k; assay: Inhibition of binding of 125I-labeled Lysozyme (Hen) (P46-61) to I-A^k; conditions: for Competition with the lysozyme-derived peptide for binding to I-A^k (in words): up to 2500 μM
From the text: as §2, §3
For the inhibition assay a dose-range of unlabeled cI P12-26 peptide was added to the incubation mixture of Ia and ^125 I-labeled peptide ([…] μM). The degree of association between Ia and labeled peptide was determined by gel filtration as described in Table 1. The percentage of peptide bound in the absence of inhibitors is 10.6 percent for ovalbumin (323 to 339)/I-A^d; 6.5 percent for myoglobulin 132 to 153)/I-E^d; 21.5 percent for lysozyme (46 to 61)/I-A^k; 2.5 percent for cytochrome C (88 to 104)/I-E^k. The concentration of inhibitory peptide required to obtain a 50 percent inhibition of binding was calculated. Each experiment was repeated three times.

[7] = system: I-E^d; assay: Restriction of peptide-specific T-cell hybrids assayed on L cells expressing I-A^d or I-E^d; type: cell-based, Balb/c mouse; conditions: P12-26: of more than 300 hybrids; myoglobin (P135-147): of 80 hybrids
From the text: That is, they could be stimulated by antigen in the presence of L cells expressing I-A^d, but could not be shown to be stimulated by antigen in the presence of L cells expressing I-E^d.
as §4

P12-26: derived from the cI protein of bacteriophage lambda (residues 12-26)
Binding to the I-E^k molecule (in words) [1]: able to bind to both molecules as expected
Proliferation (thymidine incorporation) [2]: 68,000 cpm
Stimulation of DO-11.10 [3]: Neither of these peptides can stimulate DO-11.10 on its own
Inhibition of ovalbumin-specific T-cell activation (DO-11.10) ([3]; Ova (P324-336) as stimulator, A20 presenting cells, peptide at 50 μM, 24 hrs): act as inhibitors
IC50 [4]: 300 µM
Binding to the I-A^k molecule (in words) [5]: not bound; also recorded: inability of P12-26 to bind
IC50 ([6]; 125I Lysozyme (Hen) (P46-61) bound to I-A^k, read-out: Concentration (μM) of P12-26 Required for 50 percent Inhibition): > 2500 µM
Competition with the lysozyme-derived peptide for binding to I-A^k (in words) [6]: is not observed
Competition with the lysozyme-derived peptide for binding to I-A^k (in words) ([6]; listed as P1226): No inhibition of binding was detected
Number of peptide-specific hybrids restricted by I-E^d [7]: none
